Laboratory results taken from patent US20240376151A1, “STAPLED PEPTIDES AND METHODS THEREOF” (FOG PHARMACEUTICALS, INC., priority 2022, published 2024).
Numbered stars: 1 amine (or outer) side, 2 acyl side, 3 side chain; on linkers, the order of the positions; unused ones are H or OH. Bridge positions count the residues as written; N and C are the ends. Ends that are not written are not given here. Phenylene(1,4-NHCOCH2)2 = O=C(C[*:1])Nc1ccc(NC(=O)C[*:2])cc1

Columns and labels:
CDK2 = CDK2 (Homo sapiens, UniProt P24941); test: Phage Library Screening with NGS, CDK2; type: binding; parameters: Full length CDK2 (residues 1-298) with an N-terminal GST-3C-6×his-TEV tag; GST-3C-6×his-TEV (N, cleaved yes); made in house; host or cells: Sf9 (Bac-to-Bac baculovirus); settings: for phage screen counts, Target Concentration 10: CDK2, target concentration 10; for phage screen counts, Target Concentration 30: CDK2, target concentration 30; for phage screen counts, Target Concentration 100: CDK2, target concentration 100; for phage screen counts, Target Concentration 300: CDK2, target concentration 300
PPIA = target: T1, PPIA (Homo sapiens, UniProt P62937); test: Phage Library Screening with NGS, PPIA; type: binding
T1 construct: Full length PPIA (residues 1-165) with an N-terminal 6×his-yBBR-TEV tag; 6×his-yBBR-TEV (N); made in house; host or cells: E. coli BL21 (DE3) CodonPlus RIPL

[1] = CDK2, target concentration 1000, first column
[2] = CDK2, target concentration 1000, second column
[3] = target concentration 1000, first column
[4] = target concentration 1000, second column

T1 sequence (P62937 whole entry, the tested form may be a part): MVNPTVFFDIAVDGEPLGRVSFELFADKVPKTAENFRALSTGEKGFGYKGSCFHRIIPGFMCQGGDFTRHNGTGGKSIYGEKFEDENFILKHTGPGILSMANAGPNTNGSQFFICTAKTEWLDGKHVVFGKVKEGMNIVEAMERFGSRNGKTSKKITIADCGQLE

Sequence	phage screen counts, Target Concentration 10 (CDK2)	phage screen counts, Target Concentration 30 (CDK2)	phage screen counts, Target Concentration 100 (CDK2)	phage screen counts, Target Concentration 300 (CDK2)	phage screen counts, Target Concentration 1000 (CDK2; [1])	phage screen counts, Target Concentration 1000 (CDK2; [2])	phage screen counts, Target Concentration 10 (PPIA)	phage screen counts, Target Concentration 30 (PPIA)	phage screen counts, Target Concentration 100 (PPIA)	phage screen counts, Target Concentration 300 (PPIA)	phage screen counts, Target Concentration 1000 (PPIA; [3])	phage screen counts, Target Concentration 1000 (PPIA; [4])
PTCLNAFFACE (linker 3-10 via Phenylene(1,4-NHCOCH2)2 (inferred))	0	0	0	1	109	35						
PSCLSAFFSCY (linker 3-10 via Phenylene(1,4-NHCOCH2)2 (inferred))	0	1	0	14	722	485						
DPAWWECIVAALECSDR (linker 7-14 via Phenylene(1,4-NHCOCH2)2 (inferred))	0	0	0	62	76	90						
DPAWYECIVAAIECVEY (linker 7-14 via Phenylene(1,4-NHCOCH2)2 (inferred))	0	0	79	131	54	115						
ECLSAFFTCV (linker 2-9 via Phenylene(1,4-NHCOCH2)2 (inferred))	0	0	0	57	452	284						
PECLVAFFSCV (linker 3-10 via Phenylene(1,4-NHCOCH2)2 (inferred))	0	1	9	9	422	142						
DPAWWSCVIAAMECQDI (linker 7-14 via Phenylene(1,4-NHCOCH2)2 (inferred))	0	0	0	39	87	90						
PCLDAFFYCVT (linker 2-9 via Phenylene(1,4-NHCOCH2)2 (inferred))	0	0	0	7	18	51						
CLDAFFACER (linker 1-8 via Phenylene(1,4-NHCOCH2)2 (inferred); not fully specified (C-terminus))	0	0	0	4	7	408						
MACVDAFFSC (linker 3-10 via Phenylene(1,4-NHCOCH2)2 (inferred))	0	0	1	17	320	16						
PFECLSAFFSC (linker 4-11 via Phenylene(1,4-NHCOCH2)2 (inferred))	0	0	0	1	212	44						
DPAWWRCSIAAMECHHD (linker 7-14 via Phenylene(1,4-NHCOCH2)2 (inferred))	0	0	13	39	119	102						
PACVSAFFACL (linker 3-10 via Phenylene(1,4-NHCOCH2)2 (inferred))	0	0	0	0	151	19						
PECLEAFFDCR (linker 3-10 via Phenylene(1,4-NHCOCH2)2 (inferred))	0	9	0	84	344	328						
YECLEAFFNC (linker 3-10 via Phenylene(1,4-NHCOCH2)2 (inferred))	0	0	0	2	208	193						
CLSAFFSCTY (linker 1-8 via Phenylene(1,4-NHCOCH2)2 (inferred); not fully specified (C-terminus))	29	0	0	0	111	330						
DPAWWRCVVAALDCVDY (linker 7-14 via Phenylene(1,4-NHCOCH2)2 (inferred))	0	12	8	262	162	409						
CLSAFFMCSS (linker 1-8 via Phenylene(1,4-NHCOCH2)2 (inferred); not fully specified (C-terminus))	0	0	0	0	90	50						
DPAWWVCAIAAIECSDV (linker 7-14 via Phenylene(1,4-NHCOCH2)2 (inferred); not fully specified (N-terminus, C-terminus))	38	634	2330	12368	7673	8315						
DPAWWMCTIAAIECETT (linker 7-14 via Phenylene(1,4-NHCOCH2)2 (inferred))	0	0	73	973	909	998						
PMACLSAFFTC (linker 4-11 via Phenylene(1,4-NHCOCH2)2 (inferred))	0	0	0	16	114	176						
DPAWYACIVAAVDCEHS (linker 7-14 via Phenylene(1,4-NHCOCH2)2 (inferred))	0	0	8	46	206	115						
WSCLSAYFSC (linker 3-10 via Phenylene(1,4-NHCOCH2)2 (inferred))	0	0	0	0	19	189						
PDCHIRAYVCH (Ac-PDCHIRAYVCH-NH2; bridge 3-10; also: Cys-Cys staple, linker not named)							0	0	1	8	11	120
PDCHVAAWMCF							0	0	0	8	16	26
DPARADCHVAAYWCHHQ							0	0	4	5	8	7
